System: renin-angiotensin system (RAS)
Assay: RSSE-Fingerprinting: blood incubated at 37° C. with added agents, LC-MS/MS quantification of angiotensin peptides
Type: biochemical, human
Settings: for shift of RSSE-Fingerprint: 5 μg/ml enzyme added prior to incubation
Description: Blood samples were collected and anti-coagulated with standardised heparin tubes (BD). As indicated in FIGS. 3A-3C, plasma separation has been done for the respective samples before the incubation to reach steady state equilibrium.
Following plasma separation by centrifugation at 3000 rcf for 10 minutes at 4° C., […] of plasma was applied onto an activated and equilibrated SEP-PAK™ C18 cartridge. Sample matrix components were removed by washing three times with 1 ml water. Bound analytes were then eluted with 1 ml of methanol. Eluates were evaporated to dryness and reconstituted in 10% acetonitril/90% water supplemented with 0.1% formic acid followed by subjection to LC-MS/MS analysis.
A vacuum manifold has been used for sample processing. • 1. Activation: EtOH abs. • 2. Equilibration: 2×1 ml H2O • 3. Loading: 0.2-1 ml stabilised plasma • 4. Washing: 3×1 ml H2O • 5. Elution: 1 ml MeOH Quantification and Signal Integration
MRM chromatograms were integrated using Analyst 1.5.1 software provided by Applied Biosystems. The threshold for the quantification limit was set at a signal-to-noise ratio of 10. Integration signals not reaching this ratio were set to zero. Analyte signals were related to internal standard signals and concentration was calculated from initially spiked amounts of internal standards.

B1: ACE: recombinant RAS enzyme Angiotensin Converting Enzyme, purchased from R&D Systems (protein, UniProt P12821 30-1306, looked up)
Angiotensin-converting enzyme: LDPGLQPGNFSADEAGAQLFAQSYNSSAEQVLFQSVAASWAHDTNITAENARRQEEAALLSQEFAEAWGQKAKELYEPIWQNFTDPQLRRIIGAVRTLGSANLPLAKRQQYNALLSNMSRIYSTAKVCLPNKTATCWSLDPDLTNILASSRSYAMLLFAWEGWHNAAGIPLKPLYEDFTALSNEAYKQDGFTDTGAYWRSWYNSPTFEDDLEHLYQQLEPLYLNLHAFVRRALHRRYGDRYINLRGPIPAHLLGDMWAQSWENIYDMVVPFPDKPNLDVTSTMLQQGWNATHMFRVAEEFFTSLELSPMPPEFWEGSMLEKPADGREVVCHASAWDFYNRKDFRIKQCTRVTMDQLSTVHHEMGHIQYYLQYKDLPVSLRRGANPGFHEAIGDVLALSVSTPEHLHKIGLLDRVTNDTESDINYLLKMALEKIAFLPFGYLVDQWRWGVFSGRTPPSRYNFDWWYLRTKYQGICPPVTRNETHFDAGAKFHVPNVTPYIRYFVSFVLQFQFHEALCKEAGYEGPLHQCDIYRSTKAGAKLRKVLQAGSSRPWQEVLKDMVGLDALDAQPLLKYFQPVTQWLQEQNQQNGEVLGWPEYQWHPPLPDNYPEGIDLVTDEAEASKFVEEYDRTSQVVWNEYAEANWNYNTNITTETSKILLQKNMQIANHTLKYGTQARKFDVNQLQNTTIKRIIKKVQDLERAALPAQELEEYNKILLDMETTYSVATVCHPNGSCLQLEPDLTNVMATSRKYEDLLWAWEGWRDKAGRAILQFYPKYVELINQAARLNGYVDAGDSWRSMYETPSLEQDLERLFQELQPLYLNLHAYVRRALHRHYGAQHINLEGPIPAHLLGNMWAQTWSNIYDLVVPFPSAPSMDTTEAMLKQGWTPRRMFKEADDFFTSLGLLPVPPEFWNKSMLEKPTDGREVVCHASAWDFYNGKDFRIKQCTTVNLEDLVVAHHEMGHIQYFMQYKDLPVALREGANPGFHEAIGDVLALSVSTPKHLHSLNLLSSEGGSDEHDINFLMKMALDKIAFIPFSYLVDQWRWRVFDGSITKENYNQEWWSLRLKYQGLCPPVPRTQGDFDPGAKFHIPSSVPYIRYFVSFIIQFQFHEALCQAAGHTGPLHKCDIYQSKEAGQRLATAMKLGFSRPWPEAMQLITGQPNMSASAMLSYFKPLLDWLRTENELHGEKLGWPQYNWTPNSARSEGPLPDSGRVSFLGLDLDAQQARVGQWLLLFLGIALLVATLGLSQRLFSIRHRSLHRHSHGPQFGSEVELRHS
shift of RSSE-Fingerprint: shifted as expected
steady state equilibrium Ang 1-10 concentration, addition of ACE compared to ACE2 (5 μg/ml enzyme, FIG. 2B1): lower

B2: APN: recombinant aminopeptidase N, purchased from R&D Systems (protein, UniProt P15144 2-967, looked up)
Aminopeptidase N: AKGFYISKSLGILGILLGVAAVCTIIALSVVYSQEKNKNANSSPVASTTPSASATTNPASATTLDQSKAWNRYRLPNTLKPDSYRVTLRPYLTPNDRGLYVFKGSSTVRFTCKEATDVIIIHSKKLNYTLSQGHRVVLRGVGGSQPPDIDKTELVEPTEYLVVHLKGSLVKDSQYEMDSEFEGELADDLAGFYRSEYMEGNVRKVVATTQMQAADARKSFPCFDEPAMKAEFNITLIHPKDLTALSNMLPKGPSTPLPEDPNWNVTEFHTTPKMSTYLLAFIVSEFDYVEKQASNGVLIRIWARPSAIAAGHGDYALNVTGPILNFFAGHYDTPYPLPKSDQIGLPDFNAGAMENWGLVTYRENSLLFDPLSSSSSNKERVVTVIAHELAHQWFGNLVTIEWWNDLWLNEGFASYVEYLGADYAEPTWNLKDLMVLNDVYRVMAVDALASSHPLSTPASEINTPAQISELFDAISYSKGASVLRMLSSFLSEDVFKQGLASYLHTFAYQNTIYLNLWDHLQEAVNNRSIQLPTTVRDIMNRWTLQMGFPVITVDTSTGTLSQEHFLLDPDSNVTRPSEFNYVWIVPITSIRDGRQQQDYWLIDVRAQNDLFSTSGNEWVLLNLNVTGYYRVNYDEENWRKIQTQLQRDHSAIPVINRAQIINDAFNLASAHKVPVTLALNNTLFLIEERQYMPWEAALSSLSYFKLMFDRSEVYGPMKNYLKKQVTPLFIHFRNNTNNWREIPENLMDQYSEVNAISTACSNGVPECEEMVSGLFKQWMENPNNNPIHPNLRSTVYCNAIAQGGEEEWDFAWEQFRNATLVNEADKLRAALACSKELWILNRYLSYTLNPDLIRKQDATSTIISITNNVIGQGLVWDFVQSNWKKLFNDYGGGSFSFSNLIQAVTRRFSTEYELQQLEQFKKDNEETGFGSGTRALEQALEKTKANIKWVKENKEVVLQWFTENSK
shift of RSSE-Fingerprint: shifted as expected

B3: NEP: recombinant neutral endopeptidase (neprilysin), purchased from R&D Systems (protein, UniProt P08473 2-750, looked up)
Neprilysin: GKSESQMDITDINTPKPKKKQRWTPLEISLSVLVLLLTIIAVTMIALYATYDDGICKSSDCIKSAARLIQNMDATTEPCTDFFKYACGGWLKRNVIPETSSRYGNFDILRDELEVVLKDVLQEPKTEDIVAVQKAKALYRSCINESAIDSRGGEPLLKLLPDIYGWPVATENWEQKYGASWTAEKAIAQLNSKYGKKVLINLFVGTDDKNSVNHVIHIDQPRLGLPSRDYYECTGIYKEACTAYVDFMISVARLIRQEERLPIDENQLALEMNKVMELEKEIANATAKPEDRNDPMLLYNKMTLAQIQNNFSLEINGKPFSWLNFTNEIMSTVNISITNEEDVVVYAPEYLTKLKPILTKYSARDLQNLMSWRFIMDLVSSLSRTYKESRNAFRKALYGTTSETATWRRCANYVNGNMENAVGRLYVEAAFAGESKHVVEDLIAQIREVFIQTLDDLTWMDAETKKRAEEKALAIKERIGYPDDIVSNDNKLNNEYLELNYKEDEYFENIIQNLKFSQSKQLKKLREKVDKDEWISGAAVVNAFYSSGRNQIVFPAGILQPPFFSAQQSNSLNYGGIGMVIGHEITHGFDDNGRNFNKDGDLVDWWTQQSASNFKEQSQCMVYQYGNFSWDLAGGQHLNGINTLGENIADNGGLGQAYRAYQNYIKKNGEEKLLPGLDLNHKQLFFLNFAQVWCGTYRPEYAVNSIKTDVHSPGNFRIIGTLQNSAEFSEAFHCRKNSYMNPEKKCRVW
shift of RSSE-Fingerprint: shifted as expected
